# Measurements published in paper PMC4451460 (2015).
# Molecular target: C4 single-chain Fv antibody (C4 scFv) (human (from a human scFv phage-display …))
# Assay: ITC
row,Binder,Ka [M⁻¹]
1,"MATLEKLMKAFESLKSF [HTT(1-17) peptide, the 17 N-terminal residues of huntingtin]",1.8e+07
2,MATLEKLMKAFESL [truncated peptide HTT(1-14)],3.09e+06

# More lines, now with the values ahead:
row,Ka [M⁻¹],Binder
1,9.08e+06,MATLEKLMKAFESLKS [truncated peptide HTT(1-16)]
2,6.87e+06,MATLEKLMKAFESLK [truncated peptide HTT(1-15)]
